Experimental findings from PMC5394417, “Investigating the molecular mechanism of positive and negative allosteric modulators in the calcium-sensing receptor dimer” (Scientific Reports, 2017) are described below.

The data set deals with the molecule itself. Put plainly: FRET or BRET; TR-FRET dimerization assay on transiently transfected HEK293T cells co-expressing an HA-tagged and a myc-tagged construct (1:1); Tb3+-conjugated anti-HA antibody (donor, 1 nM) and d2-conjugated anti-myc antibody (acceptor, 50 nM), 24 h at 4 °C; HBSS, 20 mM HEPES, 0.5 mM CaCl2, 0.5 mM MgCl2, 5 mg/mL bovine serum albumin, pH 7.4; FRET ratio (665 nm/615 nm) normalized to pEGFPN1. (In general: In BRET a luciferase serves as donor, and the signal depends on an acceptor being close.)

B1: rat calcium-sensing receptor, wild type (receptor, UniProt P48442 20-1079, looked up)
chain: YGPDQRAQKKGDIILGGLFPIHFGVAAKDQDLKSRPESVECIRYNFRGFRWLQAMIFAIEEINSSPSLLPNMTLGYRIFDTCNTVSKALEATLSFVAQNKIDSLNLDEFCNCSEHIPSTIAVVGATGSGVSTAVANLLGLFYIPQVSYASSSRLLSNKNQYKSFLRTIPNDEHQATAMADIIEYFRWNWVGTIAADDDYGRPGIEKFREEAEERDICIDFSELISQYSDEEEIQQVVEVIQNSTAKVIVVFSSGPDLEPLIKEIVRRNITGRIWLASEAWASSSLIAMPEYFHVVGGTIGFGLKAGQIPGFREFLQKVHPRKSVHNGFAKEFWEETFNCHLQEGAKGPLPVDTFVRSHEEGGNRLLNSSTAFRPLCTGDENINSVETPYMDYEHLRISYNVYLAVYSIAHALQDIYTCLPGRGLFTNGSCADIKKVEAWQVLKHLRHLNFTNNMGEQVTFDECGDLVGNYSIINWHLSPEDGSIVFKEVGYYNVYAKKGERLFINEEKILWSGFSREVPFSNCSRDCQAGTRKGIIEGEPTCCFECVECPDGEYSGETDASACDKCPDDFWSNENHTSCIAKEIEFLAWTEPFGIALTLFAVLGIFLTAFVLGVFIKFRNTPIVKATNRELSYLLLFSLLCCFSSSLFFIGEPQDWTCRLRQPAFGISFVLCISCILVKTNRVLLVFEAKIPTSFHRKWWGLNLQFLLVFLCTFMQILICIIWLYTAPPSSYRNHELEDEIIFITCHEGSLMALGSLIGYTCLLAAICFFFAFKSRKLPENFNEAKFITFSMLIFFIVWISFIPAYASTYGKFVSAVEVIAILAASFGLLACIFFNKVYIILFKPSRNTIEEVRSSTAAHAFKVAARATLRRPNISRKRSSSLGGSTGSIPSSSISSKSNSEDRFPQPERQKQQQPLSLTQQEQQQQPLTLHPQQQQQPQQPRCKQKVIFGSGTVTFSLSFDEPQKNAMAHRNSMRQNSLEAQRSNDTLGRHQALLPLQCADADSEMTIQETGLQGPMVGDHQPEMESSDEMSPALVMSTSRSFVISGGGSSVTENVLHS
notes: calcium-sensing receptor (CaSR), rat; Each copy carries one tag only, HA or myc; the two differently tagged copies were co-expressed; The mGluR5 signal peptide stands upstream of the tag; also called CaSR; WT HA-CaSR; source: HEK293T, transiently transfected (Lipofectamine 2000), on cells; not shown: HA (one copy), N-terminal, kept; myc (the other copy), N-terminal, kept
With B1, the “fold increase in FRET signal” value is 11.8 fold.

B2: rat GPRC6A, wild type (receptor, UniProt Q70VB1 21-928, looked up)
chain: CHTPDDFVAITSPGHIMIGGLFAIHEKMLSSDDHPRQPQIQKCVGFEISVFLQTLAMIHSIEMINNSSLLSGVKLGYEIYDTCTEVTAAMAATLRFLSKFNCSRETVIFQCDYSSYVPRVKAIIGAGYSEISMAVSRMLNLQLMPQVSYESTAEILSDKIRFPSFLRTVPSDFYQTKAMAHLIRQSGWNWVGAITTDDDYGRLALNTFAIQAAENNVCIAFKEVLPAFLSDNTIEVRINQTLEKIIAEAQVNVIVVFLRKFHVFNLFNKAIERKISKIWIASDNWSTAAKIITIPNVKKLGKVVGFTFRRGNMSSFHSFLQTLHMYPSDNNKPLHEFAMLFSACKHIKDGDLSQCISNYSQATWTYDTTKTIETHLFKRNDFLWHYTEPGLIHSIQLAVLALGHAIRDLCQDRDCQKPNAFQPWELLAVLKNVTFTDGKNSFHFDAHGDLNTGYEVVLWKETNGLMTVTKMAEYDLQHDVFITTNQETKHEFRKLKQILSKCSKECIPGQMKKATGSQHSCCYECVNCPENHYSNETDMDHCLVCNNETHWAPVRSTMCFEKEVEYLDWDDSLALLLIALSLLGIAFVLAVGIIFTRNLKTPVVKSSGGLVVCYVMLACHALNFASTGFFIGEPQDFTCKTRQTLFGVSFTLCVSCILTKSLKILLAFSFDPTLKTFLKCLYRPVPIVLTCTGIQVVICTLWLVLAAPTVEENTSLPRVIILECEEGSALAFGTMLGYIAVLAFICFVFAFKGRKLPENYNEAKFLTFGMLIYFIAWITFIPVYATTFGKYLPAVEIIVILISNYGILCCTFFPKCYIILCKQKTNTKSVFLQMVYNYSAHSVDSLALSHVSLDSASHSTATTNPRPGNKTAACQNYKHLPVQVLAHTGMEKTMHASKTLHQKRSSSI
notes: GPRC6A, rat; previously described myc-tagged rat GPRC6A-pEGFPN1 construct with the mGluR5 signal peptide upstream of the myc tag; Each copy carries one tag only, HA or myc; the HA-GPRC6A construct is not described; also called WT myc-GPRC6A; WT HA-GPRC6A; source: HEK293T, transiently transfected (Lipofectamine 2000), on cells; not shown: HA (one copy), N-terminal, kept; myc (the other copy), …
For the protein B2, the “fold increase in FRET signal” value amounted to 9.8 fold.
